Experiments:
[1] = target: low density lipoprotein receptor-related protein 1 (LRP1), full-length (UniProt Q07954)
[2] = target: low density lipoprotein receptor-related protein 1 (LRP1), full-length (UniProt Q07954); remark: listed apart in the source
[3] = target: T1, ADAM17 ectodomain (UniProt P78536 215-671); assay: enzyme inhibition under equilibrium conditions (Ki(app), tight binding equation); apparent; ADAM17 preincubated with wild-type or mutant TIMP-3 (0.25-25 nM) 1 h at 37 °C, residual activity on a fluorescence-quenched substrate; 50 mM Tris-HCl pH 7.5, 25 mM NaCl, 10 mM CaCl2, 0.05% Brij 35, 0.02% NaN3; conditions: both partners purified
T1 construct: ADAM17, ectodomain; source: gift from Professor Gillian Murphy (University of Cambridge)

[4] = target: T2, catalytic domain of MMP-3 (MMP-3ΔC) (UniProt P08254 100-272); assay: enzyme inhibition under equilibrium conditions (Ki(app), tight binding equation); apparent; metalloproteinase (0.5-1 nM) preincubated with wild-type or mutant TIMP-3 (0.25-25 nM) 1 h at 37 °C, residual activity on fluorescence-quenched substrates; 50 mM Tris-HCl pH 7.5, 150 mM NaCl, 10 mM CaCl2, 0.05% Brij 35, 0.02% NaN3; conditions: both partners purified
T2 construct: MMP-3, catalytic domain

[5] = target: T3, catalytic domain of MMP-1 (MMP-1ΔC) (UniProt P03956 100-269); assay: as above; conditions: both partners purified
T3 construct: MMP-1, catalytic domain
T3 sequence (looked up): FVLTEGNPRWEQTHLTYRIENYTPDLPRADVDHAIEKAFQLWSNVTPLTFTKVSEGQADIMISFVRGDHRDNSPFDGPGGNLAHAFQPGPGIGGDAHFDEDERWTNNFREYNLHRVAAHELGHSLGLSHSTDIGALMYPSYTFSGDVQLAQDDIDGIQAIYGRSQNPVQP

[6] = target: T4, ADAMTS-5 lacking the C-terminal thrombospondin domain (UniProt Q9UNA0 262-874); assay: as above; conditions: both partners purified
T4 construct: ADAMTS-5 without its C-terminal thrombospondin domain
T4 sequence (looked up): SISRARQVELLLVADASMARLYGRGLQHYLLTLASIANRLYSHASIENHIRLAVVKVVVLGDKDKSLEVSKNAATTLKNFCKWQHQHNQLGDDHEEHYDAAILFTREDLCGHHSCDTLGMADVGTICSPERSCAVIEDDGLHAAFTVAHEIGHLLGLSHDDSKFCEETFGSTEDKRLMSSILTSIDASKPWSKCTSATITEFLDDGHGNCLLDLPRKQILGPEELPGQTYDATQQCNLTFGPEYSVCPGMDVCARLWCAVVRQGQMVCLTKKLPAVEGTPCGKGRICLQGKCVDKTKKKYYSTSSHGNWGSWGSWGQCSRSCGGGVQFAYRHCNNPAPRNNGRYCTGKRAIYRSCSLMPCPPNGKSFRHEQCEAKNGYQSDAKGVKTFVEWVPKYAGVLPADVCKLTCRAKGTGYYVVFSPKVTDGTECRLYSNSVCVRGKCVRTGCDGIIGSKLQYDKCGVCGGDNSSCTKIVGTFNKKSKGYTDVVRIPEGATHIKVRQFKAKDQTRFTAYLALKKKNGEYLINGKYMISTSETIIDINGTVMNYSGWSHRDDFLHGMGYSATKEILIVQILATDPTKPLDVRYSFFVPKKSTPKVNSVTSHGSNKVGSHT

[7] = target: T5, ADAMTS-4 lacking the C-terminal spacer domain (UniProt O75173 213-685); assay: as above; conditions: both partners purified
T5 construct: ADAMTS-4 without its C-terminal spacer domain
T5 sequence (looked up): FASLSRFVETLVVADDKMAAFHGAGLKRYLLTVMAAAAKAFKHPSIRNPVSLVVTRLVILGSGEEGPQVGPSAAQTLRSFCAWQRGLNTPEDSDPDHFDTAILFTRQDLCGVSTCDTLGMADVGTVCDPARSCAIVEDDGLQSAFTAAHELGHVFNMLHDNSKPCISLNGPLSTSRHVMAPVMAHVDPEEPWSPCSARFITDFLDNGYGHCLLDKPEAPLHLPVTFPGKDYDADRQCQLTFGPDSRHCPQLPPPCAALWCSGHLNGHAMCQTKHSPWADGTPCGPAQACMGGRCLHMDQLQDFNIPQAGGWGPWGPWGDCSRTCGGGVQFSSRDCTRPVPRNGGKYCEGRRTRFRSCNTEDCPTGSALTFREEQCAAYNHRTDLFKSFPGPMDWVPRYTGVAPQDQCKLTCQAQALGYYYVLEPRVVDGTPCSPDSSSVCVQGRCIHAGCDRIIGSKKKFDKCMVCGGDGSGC

[8] = target: T6, catalytic domain of MMP-2 (MMP-2ΔC) (UniProt P08253 110-444); assay: as above; conditions: both partners purified
T6 construct: MMP-2, catalytic domain
T6 sequence (P08253 110-444, stated change not applied): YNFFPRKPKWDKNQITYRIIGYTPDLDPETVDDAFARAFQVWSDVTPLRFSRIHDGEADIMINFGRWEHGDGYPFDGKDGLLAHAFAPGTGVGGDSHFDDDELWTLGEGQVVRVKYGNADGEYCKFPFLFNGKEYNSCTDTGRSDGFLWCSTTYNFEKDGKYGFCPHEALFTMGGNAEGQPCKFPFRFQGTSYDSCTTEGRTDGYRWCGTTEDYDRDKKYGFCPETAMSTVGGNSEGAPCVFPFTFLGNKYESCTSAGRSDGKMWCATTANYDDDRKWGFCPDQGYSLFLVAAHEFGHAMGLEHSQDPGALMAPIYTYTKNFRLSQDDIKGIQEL

Chain of low density lipoprotein receptor-related protein 1 (LRP1), full-length (Q07954 20-4544): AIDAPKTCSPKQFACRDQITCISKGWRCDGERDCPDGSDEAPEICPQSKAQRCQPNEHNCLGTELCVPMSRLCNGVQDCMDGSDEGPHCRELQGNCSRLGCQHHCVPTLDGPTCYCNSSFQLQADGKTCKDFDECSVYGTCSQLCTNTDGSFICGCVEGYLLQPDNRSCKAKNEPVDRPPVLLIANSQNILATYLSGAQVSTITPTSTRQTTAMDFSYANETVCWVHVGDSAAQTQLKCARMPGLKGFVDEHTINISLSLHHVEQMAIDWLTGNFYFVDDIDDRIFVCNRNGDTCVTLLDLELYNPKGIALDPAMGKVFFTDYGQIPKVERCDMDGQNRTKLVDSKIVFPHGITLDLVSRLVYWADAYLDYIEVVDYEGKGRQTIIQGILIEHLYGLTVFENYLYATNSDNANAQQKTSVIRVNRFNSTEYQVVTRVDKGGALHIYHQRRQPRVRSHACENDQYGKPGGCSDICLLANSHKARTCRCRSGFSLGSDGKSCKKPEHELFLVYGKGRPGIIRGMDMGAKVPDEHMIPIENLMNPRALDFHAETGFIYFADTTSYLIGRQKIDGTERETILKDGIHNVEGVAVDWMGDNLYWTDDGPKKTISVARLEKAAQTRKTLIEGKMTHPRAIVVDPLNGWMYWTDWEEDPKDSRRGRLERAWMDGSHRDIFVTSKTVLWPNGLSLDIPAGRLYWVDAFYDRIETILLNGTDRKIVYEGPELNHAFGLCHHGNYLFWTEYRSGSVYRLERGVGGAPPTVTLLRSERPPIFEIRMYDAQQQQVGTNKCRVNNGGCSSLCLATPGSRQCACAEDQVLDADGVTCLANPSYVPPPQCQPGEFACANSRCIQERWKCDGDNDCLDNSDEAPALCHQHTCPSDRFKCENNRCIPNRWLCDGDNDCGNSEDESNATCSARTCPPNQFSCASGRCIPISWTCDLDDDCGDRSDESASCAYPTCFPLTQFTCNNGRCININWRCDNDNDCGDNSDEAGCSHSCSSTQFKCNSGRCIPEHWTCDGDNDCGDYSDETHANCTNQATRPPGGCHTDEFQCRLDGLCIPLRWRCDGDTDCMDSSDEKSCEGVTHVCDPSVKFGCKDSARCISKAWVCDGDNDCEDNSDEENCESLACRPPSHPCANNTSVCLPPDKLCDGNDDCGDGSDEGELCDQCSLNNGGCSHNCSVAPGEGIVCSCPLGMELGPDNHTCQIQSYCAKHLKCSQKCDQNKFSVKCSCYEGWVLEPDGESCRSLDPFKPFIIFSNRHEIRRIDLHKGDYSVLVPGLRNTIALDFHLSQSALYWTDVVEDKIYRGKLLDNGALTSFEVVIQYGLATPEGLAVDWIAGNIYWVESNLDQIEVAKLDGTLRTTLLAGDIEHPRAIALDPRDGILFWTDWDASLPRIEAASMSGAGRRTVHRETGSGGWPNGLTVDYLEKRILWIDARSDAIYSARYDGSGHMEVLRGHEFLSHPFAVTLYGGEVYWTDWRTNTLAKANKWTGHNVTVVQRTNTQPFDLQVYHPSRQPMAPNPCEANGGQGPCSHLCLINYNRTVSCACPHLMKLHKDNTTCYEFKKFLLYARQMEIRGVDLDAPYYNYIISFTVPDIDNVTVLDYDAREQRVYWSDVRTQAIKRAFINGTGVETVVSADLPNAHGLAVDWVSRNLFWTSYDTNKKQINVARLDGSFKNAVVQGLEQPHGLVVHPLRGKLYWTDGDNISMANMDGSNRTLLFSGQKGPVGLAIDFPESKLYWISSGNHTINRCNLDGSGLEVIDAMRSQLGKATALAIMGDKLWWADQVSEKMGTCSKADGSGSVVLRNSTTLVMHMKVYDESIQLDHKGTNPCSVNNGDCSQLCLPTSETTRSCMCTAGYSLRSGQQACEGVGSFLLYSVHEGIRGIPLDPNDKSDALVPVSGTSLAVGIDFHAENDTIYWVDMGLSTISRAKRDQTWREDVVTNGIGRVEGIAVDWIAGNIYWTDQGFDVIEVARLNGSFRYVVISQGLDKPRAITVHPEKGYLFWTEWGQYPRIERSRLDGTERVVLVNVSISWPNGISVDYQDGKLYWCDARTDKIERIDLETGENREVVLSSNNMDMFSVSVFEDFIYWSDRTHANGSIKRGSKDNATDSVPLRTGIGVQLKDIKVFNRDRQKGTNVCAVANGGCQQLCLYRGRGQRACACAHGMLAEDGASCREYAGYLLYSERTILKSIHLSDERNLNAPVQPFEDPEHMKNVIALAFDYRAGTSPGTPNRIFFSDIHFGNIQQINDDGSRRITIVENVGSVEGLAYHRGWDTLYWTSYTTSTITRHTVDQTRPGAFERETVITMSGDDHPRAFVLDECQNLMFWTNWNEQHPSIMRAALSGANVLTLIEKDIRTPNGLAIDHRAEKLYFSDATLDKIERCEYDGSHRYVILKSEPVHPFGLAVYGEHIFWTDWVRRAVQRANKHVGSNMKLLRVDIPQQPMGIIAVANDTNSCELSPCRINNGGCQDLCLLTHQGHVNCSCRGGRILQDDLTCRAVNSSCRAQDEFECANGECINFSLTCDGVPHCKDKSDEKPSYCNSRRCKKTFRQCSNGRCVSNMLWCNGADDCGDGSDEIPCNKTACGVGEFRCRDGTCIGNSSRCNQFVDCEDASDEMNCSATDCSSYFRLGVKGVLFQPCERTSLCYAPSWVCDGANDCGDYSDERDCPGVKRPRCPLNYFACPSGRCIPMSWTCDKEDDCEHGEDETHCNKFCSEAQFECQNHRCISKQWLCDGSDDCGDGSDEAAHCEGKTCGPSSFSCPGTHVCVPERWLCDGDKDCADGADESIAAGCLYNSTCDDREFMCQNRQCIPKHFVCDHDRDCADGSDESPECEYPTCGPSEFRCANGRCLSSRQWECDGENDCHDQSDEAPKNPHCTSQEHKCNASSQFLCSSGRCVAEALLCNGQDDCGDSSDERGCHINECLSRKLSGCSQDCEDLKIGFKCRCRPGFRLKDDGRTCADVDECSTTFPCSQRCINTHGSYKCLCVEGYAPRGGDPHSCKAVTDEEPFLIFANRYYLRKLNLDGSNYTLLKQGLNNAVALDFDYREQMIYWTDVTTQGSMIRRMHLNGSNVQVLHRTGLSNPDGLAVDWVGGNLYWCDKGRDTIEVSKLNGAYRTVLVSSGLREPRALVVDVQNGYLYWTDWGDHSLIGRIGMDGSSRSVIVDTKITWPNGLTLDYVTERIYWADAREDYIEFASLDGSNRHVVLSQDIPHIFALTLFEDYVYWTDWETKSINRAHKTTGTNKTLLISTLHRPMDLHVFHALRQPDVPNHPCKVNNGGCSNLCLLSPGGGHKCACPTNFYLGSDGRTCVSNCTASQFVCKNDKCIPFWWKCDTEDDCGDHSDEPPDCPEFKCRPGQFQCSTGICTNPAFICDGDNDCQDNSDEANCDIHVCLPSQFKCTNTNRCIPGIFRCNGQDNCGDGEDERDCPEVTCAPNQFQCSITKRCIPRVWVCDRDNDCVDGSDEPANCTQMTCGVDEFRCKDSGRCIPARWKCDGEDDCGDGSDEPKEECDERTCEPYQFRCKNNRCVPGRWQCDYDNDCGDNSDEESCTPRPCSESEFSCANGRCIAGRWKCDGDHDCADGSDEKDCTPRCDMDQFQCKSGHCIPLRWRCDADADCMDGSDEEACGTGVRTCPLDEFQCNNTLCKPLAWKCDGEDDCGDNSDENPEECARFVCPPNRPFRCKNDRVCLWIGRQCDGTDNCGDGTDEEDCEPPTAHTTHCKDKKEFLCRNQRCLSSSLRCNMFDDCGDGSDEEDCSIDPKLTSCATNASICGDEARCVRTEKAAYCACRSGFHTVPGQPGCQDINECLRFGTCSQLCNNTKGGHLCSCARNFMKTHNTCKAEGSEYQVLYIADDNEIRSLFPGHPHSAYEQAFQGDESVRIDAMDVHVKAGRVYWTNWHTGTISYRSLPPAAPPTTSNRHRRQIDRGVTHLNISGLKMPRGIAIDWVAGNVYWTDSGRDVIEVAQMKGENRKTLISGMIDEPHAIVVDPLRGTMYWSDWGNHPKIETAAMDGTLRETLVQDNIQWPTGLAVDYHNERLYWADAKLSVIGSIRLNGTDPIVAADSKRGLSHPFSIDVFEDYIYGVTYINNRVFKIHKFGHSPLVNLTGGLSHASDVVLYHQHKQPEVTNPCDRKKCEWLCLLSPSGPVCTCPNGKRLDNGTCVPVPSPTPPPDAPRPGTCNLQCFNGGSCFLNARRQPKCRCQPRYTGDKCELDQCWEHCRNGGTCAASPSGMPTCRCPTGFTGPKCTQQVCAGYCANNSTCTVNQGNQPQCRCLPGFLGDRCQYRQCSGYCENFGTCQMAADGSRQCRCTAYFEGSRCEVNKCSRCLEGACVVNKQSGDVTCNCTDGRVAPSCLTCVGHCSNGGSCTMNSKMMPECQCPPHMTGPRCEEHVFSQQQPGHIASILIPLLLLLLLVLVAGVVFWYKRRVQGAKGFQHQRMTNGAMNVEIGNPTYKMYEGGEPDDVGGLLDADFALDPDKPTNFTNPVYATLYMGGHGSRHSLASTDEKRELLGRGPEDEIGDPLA
T2 sequence (P08254 100-272, stated change not applied): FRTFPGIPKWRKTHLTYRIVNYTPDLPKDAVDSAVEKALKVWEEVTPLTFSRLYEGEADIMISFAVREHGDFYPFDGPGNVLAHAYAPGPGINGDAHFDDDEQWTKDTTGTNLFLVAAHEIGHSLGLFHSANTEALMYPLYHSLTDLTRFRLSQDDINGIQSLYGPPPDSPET

B1: TIMP-3 K22A/K110A, C-terminally FLAG-tagged (natural protein)
chain: CTCSPSHPQDAFCNSDIVIRAAVVGKKLVKEGPFGTLVYTIKQMKMYRGFTKMPHVQYIHTEASESLCGLKLEVNKYQYLLTGRVYDGKMYTGLCNFVERWDQLTLSQRAGLNYRYHLGCNCKIKSCYYLPCFVTSKNECLWTDMLSNFGYPGYQSKHYACIRQKGGYCSWYRGWAPPDKSIINATDP
percentage remaining in the medium of HTB94 chondrosarcoma cells after 24 h (1 nM, anti-FLAG immunoblot and densitometry) [1]: > 50%

B2: TIMP-3 K42A, C-terminally FLAG-tagged (natural protein)
chain: CTCSPSHPQDAFCNSDIVIRAKVVGKKLVKEGPFGTLVYTIAQMKMYRGFTKMPHVQYIHTEASESLCGLKLEVNKYQYLLTGRVYDGKMYTGLCNFVERWDQLTLSQRKGLNYRYHLGCNCKIKSCYYLPCFVTSKNECLWTDMLSNFGYPGYQSKHYACIRQKGGYCSWYRGWAPPDKSIINATDP
half-life of loss from the medium of HTB94 chondrosarcoma cells (1 nM, 0-24 h, anti-FLAG immunoblot and densitometry) [2]: 8.8 h

B3: TIMP-3 K30A/K76A, C-terminally FLAG-tagged (natural protein)
chain: CTCSPSHPQDAFCNSDIVIRAKVVGKKLVAEGPFGTLVYTIKQMKMYRGFTKMPHVQYIHTEASESLCGLKLEVNAYQYLLTGRVYDGKMYTGLCNFVERWDQLTLSQRKGLNYRYHLGCNCKIKSCYYLPCFVTSKNECLWTDMLSNFGYPGYQSKHYACIRQKGGYCSWYRGWAPPDKSIINATDP
percentage remaining in the medium of HTB94 chondrosarcoma cells after 24 h (1 nM, anti-FLAG immunoblot and densitometry) [1]: > 50%

B4: TIMP-3 K22A/K157A, C-terminally FLAG-tagged (natural protein)
chain: CTCSPSHPQDAFCNSDIVIRAAVVGKKLVKEGPFGTLVYTIKQMKMYRGFTKMPHVQYIHTEASESLCGLKLEVNKYQYLLTGRVYDGKMYTGLCNFVERWDQLTLSQRKGLNYRYHLGCNCKIKSCYYLPCFVTSKNECLWTDMLSNFGYPGYQSAHYACIRQKGGYCSWYRGWAPPDKSIINATDP
percentage remaining in the medium of HTB94 chondrosarcoma cells after 24 h (1 nM, anti-FLAG immunoblot and densitometry) [1]: > 50%

B5: TIMP-3 K71A, C-terminally FLAG-tagged (natural protein)
chain: CTCSPSHPQDAFCNSDIVIRAKVVGKKLVKEGPFGTLVYTIKQMKMYRGFTKMPHVQYIHTEASESLCGLALEVNKYQYLLTGRVYDGKMYTGLCNFVERWDQLTLSQRKGLNYRYHLGCNCKIKSCYYLPCFVTSKNECLWTDMLSNFGYPGYQSKHYACIRQKGGYCSWYRGWAPPDKSIINATDP
half-life of loss from the medium of HTB94 chondrosarcoma cells (1 nM, 0-24 h, anti-FLAG immunoblot and densitometry) [2]: 12.9 h

B6: TIMP-3 K27A/K45A, C-terminally FLAG-tagged (natural protein)
chain: CTCSPSHPQDAFCNSDIVIRAKVVGKALVKEGPFGTLVYTIKQMAMYRGFTKMPHVQYIHTEASESLCGLKLEVNKYQYLLTGRVYDGKMYTGLCNFVERWDQLTLSQRKGLNYRYHLGCNCKIKSCYYLPCFVTSKNECLWTDMLSNFGYPGYQSKHYACIRQKGGYCSWYRGWAPPDKSIINATDP
percentage remaining in the medium of HTB94 chondrosarcoma cells after 24 h (1 nM, anti-FLAG immunoblot and densitometry) [1]: > 50%

B7: TIMP-3 K45A/K89A, C-terminally FLAG-tagged (natural protein)
chain: CTCSPSHPQDAFCNSDIVIRAKVVGKKLVKEGPFGTLVYTIKQMAMYRGFTKMPHVQYIHTEASESLCGLKLEVNKYQYLLTGRVYDGAMYTGLCNFVERWDQLTLSQRKGLNYRYHLGCNCKIKSCYYLPCFVTSKNECLWTDMLSNFGYPGYQSKHYACIRQKGGYCSWYRGWAPPDKSIINATDP
percentage remaining in the medium of HTB94 chondrosarcoma cells after 24 h (1 nM, anti-FLAG immunoblot and densitometry) [1]: > 50%

B8: TIMP-3 K42A/K157A, C-terminally FLAG-tagged (natural protein)
chain: CTCSPSHPQDAFCNSDIVIRAKVVGKKLVKEGPFGTLVYTIAQMKMYRGFTKMPHVQYIHTEASESLCGLKLEVNKYQYLLTGRVYDGKMYTGLCNFVERWDQLTLSQRKGLNYRYHLGCNCKIKSCYYLPCFVTSKNECLWTDMLSNFGYPGYQSAHYACIRQKGGYCSWYRGWAPPDKSIINATDP
percentage remaining in the medium of HTB94 chondrosarcoma cells after 24 h (1 nM, anti-FLAG immunoblot and densitometry) [1]: > 50%

B9: TIMP-3 K30A/K52A, C-terminally FLAG-tagged (natural protein)
chain: CTCSPSHPQDAFCNSDIVIRAKVVGKKLVAEGPFGTLVYTIKQMKMYRGFTAMPHVQYIHTEASESLCGLKLEVNKYQYLLTGRVYDGKMYTGLCNFVERWDQLTLSQRKGLNYRYHLGCNCKIKSCYYLPCFVTSKNECLWTDMLSNFGYPGYQSKHYACIRQKGGYCSWYRGWAPPDKSIINATDP
percentage remaining in the medium of HTB94 chondrosarcoma cells after 24 h (1 nM, anti-FLAG immunoblot and densitometry) [1]: > 50%

B10: TIMP-3 K71A/K157A, C-terminally FLAG-tagged (natural protein)
chain: CTCSPSHPQDAFCNSDIVIRAKVVGKKLVKEGPFGTLVYTIKQMKMYRGFTKMPHVQYIHTEASESLCGLALEVNKYQYLLTGRVYDGKMYTGLCNFVERWDQLTLSQRKGLNYRYHLGCNCKIKSCYYLPCFVTSKNECLWTDMLSNFGYPGYQSAHYACIRQKGGYCSWYRGWAPPDKSIINATDP
percentage remaining in the medium of HTB94 chondrosarcoma cells after 24 h (1 nM, anti-FLAG immunoblot and densitometry) [1]: > 50%

B11: TIMP-3 K157A, C-terminally FLAG-tagged (natural protein)
chain: CTCSPSHPQDAFCNSDIVIRAKVVGKKLVKEGPFGTLVYTIKQMKMYRGFTKMPHVQYIHTEASESLCGLKLEVNKYQYLLTGRVYDGKMYTGLCNFVERWDQLTLSQRKGLNYRYHLGCNCKIKSCYYLPCFVTSKNECLWTDMLSNFGYPGYQSAHYACIRQKGGYCSWYRGWAPPDKSIINATDP
half-life of loss from the medium of HTB94 chondrosarcoma cells (1 nM, 0-24 h, anti-FLAG immunoblot and densitometry) [2]: 7.8 h

B12: TIMP-3 K26A/K45A, C-terminally FLAG-tagged (natural protein, UniProt P35625 24-211, looked up)
chain: CTCSPSHPQDAFCNSDIVIRAKVVGAKLVKEGPFGTLVYTIKQMAMYRGFTKMPHVQYIHTEASESLCGLKLEVNKYQYLLTGRVYDGKMYTGLCNFVERWDQLTLSQRKGLNYRYHLGCNCKIKSCYYLPCFVTSKNECLWTDMLSNFGYPGYQSKHYACIRQKGGYCSWYRGWAPPDKSIINATDP
notes: TIMP-3, secreted into the conditioned medium; source: for the screen also transiently transfected, conditioned medium dialyzed against TBS; not shown: FLAG, C-terminal, kept
Ki [3]: 3.78 nM
Ki [4]: 0.92 nM
Ki [5]: 0.52 nM
Ki [6]: 0.95 nM
Ki [7]: 0.12 nM
Ki [8]: 0.63 nM
